T1: human Fc Receptor-Like 5 (FcRL5), full length, expressed on cells (human, UniProt Q96RD9 16-977)
T1 construct: also called CD307e; IRTA2
T1 sequence: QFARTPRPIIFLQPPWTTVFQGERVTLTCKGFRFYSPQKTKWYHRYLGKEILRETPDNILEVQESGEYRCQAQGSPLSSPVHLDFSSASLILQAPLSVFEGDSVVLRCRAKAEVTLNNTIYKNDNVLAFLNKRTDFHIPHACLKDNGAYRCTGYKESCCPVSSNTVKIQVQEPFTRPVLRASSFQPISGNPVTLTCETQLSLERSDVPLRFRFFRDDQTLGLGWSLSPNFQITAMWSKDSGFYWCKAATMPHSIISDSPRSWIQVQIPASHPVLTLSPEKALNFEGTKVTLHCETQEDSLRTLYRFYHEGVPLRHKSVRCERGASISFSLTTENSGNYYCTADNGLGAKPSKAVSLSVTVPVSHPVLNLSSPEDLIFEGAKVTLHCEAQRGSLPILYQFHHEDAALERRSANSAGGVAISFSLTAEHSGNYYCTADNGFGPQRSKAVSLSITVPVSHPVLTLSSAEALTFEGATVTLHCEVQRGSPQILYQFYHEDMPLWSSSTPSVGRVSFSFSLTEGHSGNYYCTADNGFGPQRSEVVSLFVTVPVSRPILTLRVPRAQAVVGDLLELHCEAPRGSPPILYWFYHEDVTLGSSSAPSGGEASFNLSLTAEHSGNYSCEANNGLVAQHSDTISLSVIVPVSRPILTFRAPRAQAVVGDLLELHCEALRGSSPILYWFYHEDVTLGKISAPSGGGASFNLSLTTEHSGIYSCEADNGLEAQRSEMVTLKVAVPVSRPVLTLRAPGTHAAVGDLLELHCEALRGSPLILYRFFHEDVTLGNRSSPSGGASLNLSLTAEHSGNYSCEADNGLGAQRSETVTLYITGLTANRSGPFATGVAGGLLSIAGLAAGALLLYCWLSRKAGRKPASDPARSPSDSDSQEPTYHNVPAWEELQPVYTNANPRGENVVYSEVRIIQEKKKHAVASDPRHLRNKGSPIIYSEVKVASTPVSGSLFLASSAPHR


Each binder was assayed against T1, human Fc Receptor-Like 5 (FcRL5), full … (assay: scFv phage: ELISA on His-tag FcRL5, flow cytometry on FcRL5-overexpressing 3T3 and Raji cells).

Row | Binder | binding result
1 | ET200-006 scFv (scFv, VL-linker-VH; screened as scFv phage clone) scFv: SYVLTQPPSVSVAPGKTARITCGGNNIGSKSVHWYQQKPGQAPVVVIHYDSDRPSGIPERFSGSNSGNTATLTISRVEAGDEADYYCQVWDSSSDHPYVFGTGTKVTVLGSRGGGGSGGGGSGGGGSLEMAEVQLVQSGAEVKKPGASVKVSCKASGYTFTTYGISWVRQAPGQGLEWMGWINTYNGHTNYAQKLQGRATMTADTSTNTAYMELRSLRSDDTAVYYCARVIYGSGDYWGQGTLVTVSS | binds
2 | ET200-029 scFv (scFv, VL-linker-VH; screened as scFv phage clone) scFv: QAVLTQPPSVSVAPGKTARVTCGGNNIGSESVHWYQQKPGQAPVLVIYYDTDRPSGIPERFSGSHSGTTATLTISRVEAGDEADYYCQVWDSSRDHVVFGGGTKLTVLGSRGGGGSGGGGSGGGGSLEMAQVQLVQSGGGVVQPGRSLRLSCAASGFTFSSYAMHWVRQAPGKGLEWVAVISYDGSNKYYADSVKGLFTISRDNSKNTLYLQMNSLRAEDTAVYYCARSYFTSGFYDYWGQGTLVTVSS | binds
3 | ET200-042 scFv (scFv, VL-linker-VH; screened as scFv phage clone) scFv: QSVVTQPPSVSGAPGQTVTISCTGGSSNIGTGYFVNWYQQVPGKAPKLLILGNNNRPSGVPDRLSGSTSGTSASLAITGLQAEDEGTYYCQSYDSSLSGYVFGTGTKVTVLGSRGGGGSGGGGSGGGGSLEMAQVQLQQSGPGLVKPSQTLSLTCGISGDSVSTNSVAWHWIRQSPSRGLEWLGRTYYRSKWSNDYGVSVKSRITIIPDTSKNQFSLQLNSVTPEDTAVYYCARSSSWYQIFDYWGQGTLVTVSS | binds
4 | ET200-031 scFv (scFv, VL-linker-VH; screened as scFv phage clone; also called ET200-31) scFv: SYVLTQPPSVSVAPGKTARITCGGNNIGSKSVHWYQQKPGQAPVLVIYYDSDRPSGIPERFSGSNSGNTATLTISRVEAGDEADYYCQVWDSSSDYVFGTGTKVTVLGSRGGGGSGGGGSGGGGSLEMAEVQLVETGGGLVKPGGSLRLSCAASGFTVSDYYMSWIRQAPGKGLEWISYISGSGNSIYYADSVKGRFTISRDNAKNSLDLQMTSLRAEDTAVYYCARSTKFDYWGQGTLVTVSS | binds
5 | ET200-034 scFv (scFv, VL-linker-VH; screened as scFv phage clone) scFv: QSVLTQPPSVSGAPGQRVTISCTGSTSNIGAGYDVHWYQQLPGTAPKLLINNNRNRPSGVPDRFSGSKSGTSATLGITGLQTGDEADYYCGTWDGSLTGAVFGGGTKLTVLGSRGGGGSGGGGSGGGGSLEMAEVQLVQSGAEVKKPGSSVKVSCKASGGTFSSYAISWVRQAPGQGLEWMGGIIPIFGTANYAQKFQGRVTITADESTSTAYMELSSLRSEDTAVYYCARGSALDHYDRWGQGTLVTVSS | binds
6 | ET200-003 scFv (scFv, VL-linker-VH; screened as scFv phage clone) scFv: QSVLTQPPSVSVSPGQTASISCSGNKLGTKYVYWYQKRPGQSPVLVMYEDNQRPSGIPERFSGSNSGNTATLTIRGTQTVDEADYYCQAWDSDTFVVFGGGTKVTVLGSRGGGGSGGGGSGGGGSLEMAEVQLVETGGGVVQPGRSLRLSCAASGFTFSSYGMHWVRQAPGKGLEWVAVISHDGSNKYYADSVKGRFTISRDNSKDTLYLQMNSLRGEDTAVYYCARSNQWSGYFSFDYWGQGTLVTVSS | binds
7 | ET200-040 scFv (scFv, VL-linker-VH; screened as scFv phage clone) scFv: QSVLTQPPSVSGAPGQRVTISCTGSSSNIGAGYDVHWYQQLPGTAPKLLIYGNSNRPSGVPDRFSGSKSGTSASLAITGLQAEDEADYYCQSYDSSLSGYVFGTGTKVTVLGSRGGGGSGGGGSGGGGSLEMAQVQLVQSGAEVKKPGASVKVSCKVSGYTLTELSMHWVRQAPGKGLEWMGGFDPEDGETIYAQKFQGRVTMTEDTSTDTAYMELSSLRSEDTAVYYCARYSGVYYDWGQGTLVTVSS | binds
8 | ET200-033 scFv (scFv, VL-linker-VH; screened as scFv phage clone) scFv: NFMLTQPHSVSESPGKTVTISCTGSSGSIASNYVQWYQQRPGSAPTTVIYEDNQRPSGVPDRFSGSIDSSSNSASLTISGLKTEDEADYYCQSYDSSNHWVFGGGTKLTVLGSRGGGGSGGGGSGGGGSLEMAQVQLQQWGAGLLKPSETLSLTCAVYGGSFSGYYWSWIRQPPGKGLEWIGEITHSGRSNYNPSLKSRVTISVDTSKNQFSLKLSSVTAADTAVYYCARSSIMSDYWGQGTLVTVSS | binds
9 | ET200-045 scFv (scFv, VL-linker-VH; screened as scFv phage clone) scFv: QPVLTQPPSVSVAPGKTATITCGGNNIGSESVHWYHQKPGQAPVLVIYDDAGRPSGIPERFTGSNSGNTATLTISRVEAGDEADYYCQVWDRNSAQFVFGPGTKVTVLGSRGGGGSGGGGSGGGGSLEMAEVQLVQSGAEVKKPGASVKVSCKASGYTFTSYGISWVRQAPGQGLEWMGWISAYNGNTNYAQKLQGRVTMTTDTSTSTAYMELRSLRSDDTAVYYCARGVHLDWWGQGTLVTVSS | binds
10 | ET200-069 scFv (scFv, VL-linker-VH; screened as scFv phage clone; also called ET200-69) scFv: QSVVTQPPSASGTPGQRVTISCSGSSSNIGSNYVYWYQQLPGTAPKLLIYSNNQRPSGVPDRFSGSKSGTSASLAISGLRSEDEADYYCAAWDDSLSGYVFGTGTKLTVLGSRGGGGSGGGGSGGGGSLEMAQVQLQQWGAGLLKPSETLSLTCAVYGGSFSGYYWSWIRQPPGKGLEWIGEINHSGSTNYNPSLKSRVTISVDTSKNQFSLKLSSVTAADTAVYYCARLYEGGYHGWGSWLSSDSWGQGTLVTVSS | binds
11 | ET200-038 scFv (scFv, VL-linker-VH; screened as scFv phage clone) scFv: QSVLTQPPSVSGAPGQRVTISCTGSSSNIGAGFDVHWYQLLPGTAPKLLIYANSNRPSGVPDRFSGSKSGTSASLAITGLLAEDEADYYCQSYDSSLSGVVFGGGTKLTVLGSRGGGGSGGGGSGGGGSLEMAQVQLVQSGAEVKKPGSSVKVSCKASGGTFSSYAISWVRQAPGQGLEWMGGIIPIFGTANYAQKFQGRVTITADESTSTAYMELSSLRSEDTAVYYCARGASFDRHDNWGQGTLVTVSS | binds
12 | ET200-032 scFv (scFv, VL-linker-VH; screened as scFv phage clone) scFv: LPVLTQPPSASGTPGQRVTISCSGSSSNVGSYTVNWYRQLPGTAPTLLIYNNNQRPSGVPDRFSDSKSGTSASLTISGLQPEDEADYYCAAWDDRLGGYVFGTGTKVTVLGSRGGGGSGGGGSGGGGSLEMAEVQLVQSGAEVKKPGESLKISCKGSGYSFTNYWIGWVRQMPGKGLEWMGIIYPGDSDTRYSPSFQGQVTISADKSISTAYLQWSSLKASDTAMYYCARSTGSSHMSDEWGQGTLVTVSS | binds
13 | ET200-044 scFv (scFv, VL-linker-VH; screened as scFv phage clone) scFv: QSVLTQPPSVSVSPGQTATIACSGHKLGDKYASWYQQKSGQSPVLIIYQDNKRPSGIPERFSGSNSGNTATLTISGTQALDEADYYCQAWDSSTYVAFGGGTKLTVLGSRGGGGSGGGGSGGGGSLEMAQVQLQESGPGLVKPSETLSLTCVVSGGSISSSNWWSWVRQPPGKGLEWIGEIYHSGSPNYNPSLKSRVTISVDKSKNQFSLKLSSVTAADTAVYYCARMTTHTFGYDAWGQGTLVTVSS | binds
14 | ET200-030 scFv (scFv, VL-linker-VH; screened as scFv phage clone) scFv: QSVVTQPPSVSGAPGQRVTISCTGSSSNIGAGYDVNWYQQFPGTAPKLLIYGNSNRPSGVPDRFSGSKSGTSASLAITGLQAEDEADYYCQSYDSSLSGSYVFGTGTKVTVLGSRGGGGSGGGGSGGGGSLEMAQMQLVQSGAEVKKPGASVKVSCKASGYTLTELSMHWVRQAPGKGLEWMGGFDPEDGETIYAQKFQGRVTMTEDTSTDTAYMELSSLRSEDTAVYYCARMSSMYYDWGQGTLVTVSS | binds
15 | ET200-027 scFv (scFv, VL-linker-VH; screened as scFv phage clone) scFv: QSVLTQPPSVSGAPGQGVTIPCTGSSSNIGAGYDVHWYQQLPGTAPKLLIYGNNNRPSGVPDRFSGSRSGSSASLAITGLQAEDEADYYCQSYDSSLSDVVFGGGTKVTVLGSRGGGGSGGGGSGGGGSLEMAEVQLVQSGAEVKKPGATVKISCKVSGYTFTDYYMHWVQQAPGKGLEWMGLVDPEDGETIYAEKFQGRVTITADTSTDTAYMELSSLRSEDTAVYYCARYWSYSFDYLYMPEGNDWWGQGTLVTVSS | binds
16 | ET200-028 scFv (scFv, VL-linker-VH; screened as scFv phage clone) scFv: QSVLTQPPAASGTPGQRVTISCSGGVSNIGSGALNWYQQLPGTAPKLLIYSYNQRPSGVSDRFSGSRSATSASLAISGLQSEDEADYYCATWDDSVNGWVFGGGTKLTVLGSRGGGGSGGGGSGGGGSLEMAQVQLVQSGAEVKKPGDSVKVSCKPSGYNFLNYGINWVRQAPGQGLEWMGWISTYTGNTNYAQKLQGRVTFTTDTSTSTAYMEMRSLRSDDTAVYYCARDLYYYEGVDYWGQGTLVTVSS | binds
17 | ET200-041 scFv (scFv, VL-linker-VH; screened as scFv phage clone) scFv: NFMLTQPHSVSGSPGKTVTISCTGSSGSIADNFVQWYQQRPGGVPTTVIFNDDERPSGVPDRFSGSIDTSSNSASLTISGLKTEDEADYYCQSYDNNNRGVFGGGTKLTVLGSRGGGGSGGGGSGGGGSLEMAQVQLVQSGAEVKKPGSSVKVSCKASGGTFSSYAISWVRQAPGQGLEWMGWMNPNSGNTGYAQKFQGRVTMTRNTSISTAYMELSNLRSEDTAVYYCARYYSYGYDWGQGTLVTVSS | binds

— patent publication US20230020729A1 (Memorial Sloan Kettering, published 2023)
